Results reported in publication PMC2730168 (Molecular cell, 2009).

T1: Core RAG1 (384–1008) fused to MBP (MR1) (mouse, UniProt P15919 384-1008)
T1 sequence (looked up): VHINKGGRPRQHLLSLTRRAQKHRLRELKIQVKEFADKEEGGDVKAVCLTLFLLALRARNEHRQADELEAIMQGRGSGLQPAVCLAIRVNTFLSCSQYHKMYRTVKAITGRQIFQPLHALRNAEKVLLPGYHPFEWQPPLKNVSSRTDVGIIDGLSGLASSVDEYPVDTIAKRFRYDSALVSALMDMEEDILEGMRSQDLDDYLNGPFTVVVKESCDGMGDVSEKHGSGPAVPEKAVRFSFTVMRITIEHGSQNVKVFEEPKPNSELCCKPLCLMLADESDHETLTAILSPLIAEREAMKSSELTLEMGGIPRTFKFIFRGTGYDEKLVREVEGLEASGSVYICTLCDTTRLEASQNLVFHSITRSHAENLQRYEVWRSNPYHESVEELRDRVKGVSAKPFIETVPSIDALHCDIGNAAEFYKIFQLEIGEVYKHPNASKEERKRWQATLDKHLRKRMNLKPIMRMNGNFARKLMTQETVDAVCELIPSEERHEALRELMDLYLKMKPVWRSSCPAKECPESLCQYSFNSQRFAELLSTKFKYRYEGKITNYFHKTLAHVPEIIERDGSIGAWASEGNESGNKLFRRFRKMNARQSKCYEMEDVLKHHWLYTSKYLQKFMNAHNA

T2: Core RAG1 (384–1008) fused to MBP (MR1) (mouse), P15919
T2 chain: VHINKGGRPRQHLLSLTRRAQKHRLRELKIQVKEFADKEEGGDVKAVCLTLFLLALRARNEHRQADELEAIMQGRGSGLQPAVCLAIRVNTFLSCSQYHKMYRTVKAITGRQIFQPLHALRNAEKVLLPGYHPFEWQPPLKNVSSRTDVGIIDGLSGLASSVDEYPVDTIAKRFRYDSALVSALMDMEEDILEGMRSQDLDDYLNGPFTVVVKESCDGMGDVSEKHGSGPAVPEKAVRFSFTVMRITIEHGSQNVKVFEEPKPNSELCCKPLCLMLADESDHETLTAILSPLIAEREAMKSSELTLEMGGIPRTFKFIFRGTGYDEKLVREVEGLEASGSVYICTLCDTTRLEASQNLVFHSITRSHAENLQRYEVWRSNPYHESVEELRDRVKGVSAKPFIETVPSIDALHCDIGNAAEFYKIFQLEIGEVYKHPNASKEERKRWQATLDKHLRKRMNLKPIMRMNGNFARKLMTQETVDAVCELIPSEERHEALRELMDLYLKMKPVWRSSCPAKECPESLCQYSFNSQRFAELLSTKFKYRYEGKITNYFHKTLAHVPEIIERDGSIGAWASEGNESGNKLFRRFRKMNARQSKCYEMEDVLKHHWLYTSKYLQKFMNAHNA


Experiments:
[1] = target: T1, Core RAG1 (384–1008) fused to MBP (MR1); experiment: SEC
[2] = target: T2, Core RAG1 (384–1008) fused to MBP (MR1) …; experiment: SEC-MALS; conditions: remark: other sources report otherwise

Binder	stoichiometry N [1]	stoichiometry N [2]
Core RAG2 fused to MBP with a PreScission protease site (LR2) (domain or fragment, mouse, UniProt P21784 1-387, looked up) MSLQMVTVGHNIALIQPGFSLMNFDGQVFFFGQKGWPKRSCPTGVFHFDIKQNHLKLKPAIFSKDSCYLPPLRYPATCSYKGSIDSDKHQYIIHGGKTPNNELSDKIYIMSVACKNNKKVTFRCTEKDLVGDVPEPRYGHSIDVVYSRGKSMGVLFGGRSYMPSTQRTTEKWNSVADCLPHVFLIDFEFGCATSYILPELQDGLSFHVSIARNDTVYILGGHSLASNIRPANLYRIRVDLPLGTPAVNCTVLPGGISVSSAILTQTNNDEFVIVGGYQLENQKRMVCSLVSLGDNTIEISEMETPDWTSDIKHSKIWFGSNMGNGTIFLGIPGDNKQAMSEAFYFYTLRCSEEDLSEDQKIVSNSQTSTEDPGDSTPFEDSEEFCFS	1 RAG1:RAG2	
Core RAG1 (384–1008) fused to MBP (MR1), P15919 384-1008 (domain or fragment) VHINKGGRPRQHLLSLTRRAQKHRLRELKIQVKEFADKEEGGDVKAVCLTLFLLALRARNEHRQADELEAIMQGRGSGLQPAVCLAIRVNTFLSCSQYHKMYRTVKAITGRQIFQPLHALRNAEKVLLPGYHPFEWQPPLKNVSSRTDVGIIDGLSGLASSVDEYPVDTIAKRFRYDSALVSALMDMEEDILEGMRSQDLDDYLNGPFTVVVKESCDGMGDVSEKHGSGPAVPEKAVRFSFTVMRITIEHGSQNVKVFEEPKPNSELCCKPLCLMLADESDHETLTAILSPLIAEREAMKSSELTLEMGGIPRTFKFIFRGTGYDEKLVREVEGLEASGSVYICTLCDTTRLEASQNLVFHSITRSHAENLQRYEVWRSNPYHESVEELRDRVKGVSAKPFIETVPSIDALHCDIGNAAEFYKIFQLEIGEVYKHPNASKEERKRWQATLDKHLRKRMNLKPIMRMNGNFARKLMTQETVDAVCELIPSEERHEALRELMDLYLKMKPVWRSSCPAKECPESLCQYSFNSQRFAELLSTKFKYRYEGKITNYFHKTLAHVPEIIERDGSIGAWASEGNESGNKLFRRFRKMNARQSKCYEMEDVLKHHWLYTSKYLQKFMNAHNA		2
HMGB1 (1–163) (domain or fragment, UniProt P09429 1-163, looked up) MGKGDPKKPRGKMSSYAFFVQTCREEHKKKHPDASVNFSEFSKKCSERWKTMSAKEKGKFEDMAKADKARYEREMKTYIPPKGETKKKFKDPNAPKRPPSAFFLFCSEYRPKIKGEHPGLSIGDVAKKLGEMWNNTAADDKQPYEKKAAKLKEKYEKDIAAYR	~0.5 per RAG1	
